# Laboratory results: the DeepSol protein solubility set
# Assay: soluble on expression in E. coli; label from the status in PepcDB or PDB records
row,Sequence,soluble on expression in E. coli
1,MTSIEWDEKTFTKFAYLSDPRTRKNLVAYVLTKANLESNKYENTIVIENLEDGSRKFIEDASMPRISPDGKKIAFMRFNEEKKTAQIWVADLKTLSAKKVLEAKNIRSIEWNQDSRRLLAVGFKRREDEDFIFEDDVPAWFDNMGFFDGEKTTFWVIDTEGEEVIEQFEKPRFSSGIWHGDSIVVSVPHRDVIPRYFKYWDIYLWKDGEEEKLFEKVSFYAIDSDGERILLYGKPEKKYVSEHDKIYIYDGEVKGILDDIDREVAQAKIRNGKVYFTLFEEGSVNLYLWDGEVREIAKGKHWIMGFDADERLIYLKETATRPAELYLWDGEERQLTDYNGLIFKKLKTFEPRHFRFKSIDLELDGWYIKPEIKEGEKAPVIVFVHGGPKGMYGYYFKYEMQLMASKGYYIVYVNPRGSNGYSEDFALRVLERTGLEDFQDILNGIEEFLRLEPQADRERIGITGISYGGYMTNWALTQSDLFKAGISENGISYWLTSYAFSDIGLWFDKEVIGDNPLENENYRKLSPLFYAKNVKAPLLLIHSLEDYRCPLDQSLMFYHVLKDLGKEVYIAIFKKGAHGHSIRGSPRHRMKRYKLFMEFFERKLKKYEEGFDVEKILKEEKK,soluble
2,PPHVKFIKEKDICSYEEASDPGHFRWYPKGKLMRDLLADYVYNLVVNMGAMPVETPIMYDLGNPAIREHADKFGERQYRFRQGNKELMLRFAACFGQFMMKKDMYLLPRYLPLKLYELSTYSFRYEQRGELVGLKRLRCFTMPDMHTVCLNLEQAMEEFEKQFWECLKTGDDLNLSYSVIFRFTKDFFDEHRDWFFKIAKEYKNKYGKDVILEILPKRKHYWVGKVDIAVIDSLGRPIENPTVQIDVESAKRFDIKVHTNEGEIYPIILHCSPTGSIERVLCGLLEKAA,not soluble
3,MGKRVLIVDDATNGREAVEKYKELKPDIVTMDITMPEMNGIDAIKEIMKIDPNAKIIVCSAMGQQAMVIEAIKAGAKDFIVNTAAVENPSLITQIAQTFGSQAVVVAIDAKRVDGEFMVFTYSGKKNTGILLRDWVVEVEKRGAGEILLTSIDRDGTKSGYDTEMIRFVRPLTTLPIIASGGAGKMEHFLEAFLAGADAALAASVFHFREIDVRELKEYLKKHGVNVRLEGLLEHHH,soluble
4,SKNAVANSSSSEPAVSQTENASSSLEHENKARELASDAQANKTQELAPDSRQESLAPQEPFIDINRMLDSLSGDEGAVRMLLEVFIQDHAEDGSKLHKLLNEDIDNAQRAAHSLKGVSGSLGAMPLHYISGEIELLIKQGKEVPDNKLCQLRDVLQQTTLFAEKVLNSEKIREVLTD,not soluble
5,MSLKITDLELHAVGIPRHTGFVNKHVIVKIHTDEGLTGIGEMSDFSHLPLYSVDLHDLKQGLLSILLGQNPFDLMKINKELTDNFPETMYYYEKGSFIRNGIDNALHDLCAKYLDISVSDFLGGRVKEKIKVCYPIFRHRFSEEVESNLDVVRQKLEQGFDVFRLYVGKNLDADEEFLSRVKEEFGSRVRIKSYDFSHLLNWKDAHRAIKRLTKYDLGLEMIESPAPRNDFDGLYQLRLKTDYPISEHVWSFKQQQEMIKKDAIDIFNISPVFIGGLTSAKKAAYAAEVASKDVVLGTTQELSVGTAAMAHLGCSLTNINHTSDPTGPELYVGDVVKNRVTYKDGYLYAPDRSVKGLGIELDESLLAKYQVPDLSWDNVTVHQLQDRTADTKSEGHHHHHH,soluble
6,MNFISLSIFSEHLKSLFPFFTPNPFLNANVAVNDDVSSPNSSVTANYGHGTRACYTHRMGRFLSPKKAFFRFSLIN,not soluble
7,GSSGSSGMEAVLNELVSVEDLKNFERKFQSEQAAGSVSKSTQFEYAWCLVRSKYNEDIRRGIVLLEELLPKGSKEEQRDYVFYLAVGNYRLKEYEKALKYVRGLLQTEPQNNQAKELERLIDKAMKKSGPSSG,soluble
8,MKTYRIRKPKIVVVGGGTGLPVILKSLRNQSVDITAVVTVADDGGSSGELRSSINNMTPPGDLRNVLVALSDMPQLYEDIFQYRFDKSDSHFANHAIGNLIIAAVSEMRGSTYEAIQLLSKMMHVDGRIYPSSERPLTLHAVFKDGSVAVGESKIALDRKTIDHVFVTNTHGEEQPRAARKVVKAIEEADMVVLGPGSLFTSILPNLVITEIGEAIKQTAAEVVYICNIMTQKGETEHFTDADHVRVLNEHLQAQFVDTVLVNTEKVPENYMDPEIYDEYLVQVKHDFQGLREEGCRVISTDFLELRDGGVFHDGEKVVEELFRIVFGTKYLEHHHHHH,soluble
9,MGSDKIHHHHHHMNKDLFISSFDHRVYKKQPLAERMRPHSLNDVTGQSHLVGEKGLLSRIVAAGSIGSMIFWGPPGTGKTTVARLLALETNFAFEQVSAIFTGVAELKKIFESAQARFMSGSQTVLFVDEIHRFNRAQQDSFLPVMEDGTVILIGATTENPSFELNAALLSRARVLTFLPHDNESLGMLLKRAEALEEKTLPLDDNARDVLIDMSDGDARAALTLAEEVWSVARPGEIFDAAALRKIVQRRAPIYDKGRDGHYNLISALHKSVRGSDPDAALYYLARMFDAGEDPLYIGRRLVRMAVEDVGLADPQALVICNAAKDAYDYLGSPEGELALAQACLYVATAPKSNATYLAYKAAMRCARKNGSLPPPKHILNAPTKFMKEEGYGHGYCYDHDEPDAFSGQEYFPEKLGRQSYYQPVERGFEREIAKRLEWWKQLRKKRANQK,not soluble
10,MGGIYRLSLKSTEATAERLSCDTRCNYEDRDLAYSPDGRWLAIARRFSNISEDIFIRDLASAHEKRLTQGLEDIRGLSWTPDSQALVFATEDSGSSNGFTLDINTAQIRSLDVEGMSYPSSVSAEGELVYHQYHRQFQMAYFSLGDKVPGSLFPLLYSGVSHRNPDYSPEAKRIVFVSSETGYNEIWTSDINGQKLEQLTQLKSRVAYPRWSPDGSRIAFIAPDDRNEGNRIFILDLTNKNITALASSYHNHGRPSWNWQGTAVLASTADGITEFYLDNRAPRVISSLSMAVGFAKSATELVFSRDGENGLWQINLTQPEHVEQLISTDAFRAGNNWVLTASGVYFKSSNGHEQLLNYWEASSQQVTSLLRVPRSSLSGFGSMTYIPEANRLVMTLDGFPQRDIILLKHKLLKLEHHHHHH,soluble
11,MGSDKIHHHHHHMPETIKNISKKDAILKAALQLFSHRSFDGTTIPEIARVANVGAGTIYRYFISKEDLVNELFVRVLDDFTEHLQVGLHGQMDTRTRFHHLFNNAWNYVMNNVEAFLFINLNDEATYLNDRSRKSFSRMWDYIAEMVEQGADKGELIKLDPKFVASLVYGPLIPISKRFNNDNRQASQALAKALEEATWRAISTD,not soluble
12,MAHHHHHHMLLLLFRPVYQCTVALLCRSLPAYHPCLLSTDSPPPFFTVFCHLDDALHAMRRRSCSLRRLEVHTKRRAHAIMAELANPNPTVFEPTHDPLKGRTDAERAAEDDEDTEDPIDAWEVFEMIRRIRDPEHPNSLEQLKVVEPSLITVDWKKRHIRVLFTPTVPHCSLTTLIGLSIRLQLERSLPEYTKVDIYVTPGTHEQEAQVNKQLNDKERVAAALENRNLLNVVESCINEFDE,not soluble
13,MWQRIRLLQTLVSQKGAATAAAGAASSSPTAAAAAATTAAPPSPAPSVAADNERSFLRNLIPMRVYSSGPPSIYLRHAFLNQDRLIRRFLGALEAVPLPSLPRLLLAEGFQRMLEGDVPQRELRELFEDAEVECRKMLLHMDVSKSGHRRYHDSHADPRDQEMWHAVRHDPLRRLLAHELRAACSHYARLMGVSSSPYVPAAVIVRTIIASDVRTDNFLVKMTLAFERHPRNVETGEPVGEAMPPVVEELMKELLLLERDAFGCFRFDPRGDNHHLVHSLKLADITKTPRSFSVMRDPLMKRYGNYCVECEEVHKGRWNQYKVHCGPEDHRIDPALPLFESVVATDPITGGALNMLVHYDEPICLRHKHSLREEKGNFGHTEVFELAMDVTNRTFWERYFLDR,soluble
14,MAHHHHHHMTDPTRRDPTEFLRVLRRMSNTTSWQKAMIFASKGRMVGYRLTLEHYNTVLYSQSMWGRALEMIKVIRAMQQDGVQPNGATYYYIVNGMANAEHGYNYDFNINHRLEKLQHWRVALNALQACEANGFDSTDTMHNSVIVTMTIPGMNHWREALQVLKKIIDEDRQLHPNMVRFLHDCLIRNYRPREASDLLRCAAERGVKGYETAWETDVYKGKPTDAQLEASQAEAAVTDAAGTECVAGSSGALSSSTSDCKKAAHNSAQASAAATLMALQLRGDQTLPPPQMRSALQEEMERSITAERQALRPFTAGLHYTEMRSVFRPRVHRQLWYQWHQIANRYRPTASLKRRQLAPRDSPTGIPAWNRL,not soluble
15,MKPLPDYNHSVVEQLNALTAAGTLQADAAQLGVAAHLDRILADLKARKPARKKSALGWMFARKAGPAAFVKGLYVHGSVGRGKTMLMDMFYEMAPVSSKRRCHFHEFMADVHNRVHTHRQKLKNGETKQADPIPPVAAQLLAEAELLCFDEFTVTDIADAMILARLFSELFANGCTLVTTSNVVPDNLYKDGLNRGLFLPFVDLLKKYVEVVTLDSPTDYRMEKLESLPVYITPLDGSADQAMDMAWRHMTAGHLVAPTEIPMKGRSILVPRRQRPGCPFFLFRPLRKAARSFRLSRHRQSFRYGLHRSHSASQCRQALEHHHHHH,soluble
16,MSLKHSKIRIAHISDIHIGSRLDKLPQKMVNKIIEENPDLVVITGDLIDSHNVISTDLASFNAFKERNIPIYYTIGNHDIMAGEEYVSSILEYYGIIYLKNQVTQITIGDETIQLVGIDDVQSITKYNEIFNSITPSIHNNIYTILLHHRPQGYKTSVQSGQIDLQLAGHTHDGQVFPFNYIVPLFHSKSYGMYHIKDEGHHHHHH,not soluble
17,DAAVTPEERHLSKMQQNGYENPTYKFFEQMQNSGPSSGIEGRGSSGSSGSSGSSGPTPKTELVQKFRVQYLGMLPVDRPVGMDTLNSAIENLMTSSSKEDWPSVNMNVADATVTVISEKNEEEVLVECRVRFLSFMGVGKDVHTFAFIMDTGNQRFECHVFWCEPNAANVSEAVQAAC,soluble
18,MGLFQSDKAAEEIDPPQDVTFVNDEAGANSNTTAAKKTESEKSDTAKADQASSTVMRELYLIDKNGYVVAQTLPLPKSESTAKQALEYLVQGGPVSEILPNGFRAVLPADTTVNVDIKKDGTAIADFSNEFKNYKKEDEQKIVQSVTWTLTQFSSIDKVKLRINGHELKEMPVGGTPISDDLSRKDGINLETAGVNDLTATHPLTVYYLAENEDSEYYVPVTKRIDNSEKDDITAAINELAKGPSKVSGLLTDFSEDVKLVSKPKIKDGRVTLDFNQSIFGSADEKTKMISSEVLNSIVLTLTEQPDVKSVSVKVNGKSELVNEKGEKLTEPVSRPSQVNTGSFLEHHHHHH,soluble
19,MAHHHHHHMGIVGEYEILETLGTGAFSKVKLVRHLPTNVYFVAKIIQKSNQQVETDVRLEISILRRLRHRNIVQLIEILESSNNYYIILEPVLGGDVCSLVLSQEGGLAEDFVANLFFQLVAGLRACHQNGVAHRDLKPENLLLTGEKVLKISDFGLSRLHKQSNFHAEAEEYAHTLTGTLAYVAPEVLDGNYDAFKADIWSIGCILYVMLTGQFPFGPTTDACELGERIKDGRVCEMPKSVSENARELTMWLLSRDPASRPSLDEVATHAFLRQHVPAKNIMALTRSRQAKILAPDPSEFSSAIPEEKQVANS,soluble
20,MNTASLVRSLSRVALRSSQVVRMAAPRHFSQSAKVLSVTPELQQALNREIEAEQQLSSDNLQGAVAPTFAGFQVTNKDAEVRLTKKNGSEDILVVFNVNHSVDMDEGFDDEPSQAVAPVPVAMPPFTVEITKGDQRLCFHLELVPVDDQPDEYDFRVEEFYVAPSAKNGNEDVPSEVYASSGKYIDPDLHDLLFVRYLEERGLDARFCKTLVAYATHYEHSQYVGLLDKIKKFISK,not soluble
